Legend:
neutrophils = assay: Anti-inflammatory potential of SAA on neutrophils (oxidative burst, migration, myeloperoxidase release, O2-release); assay type: cell-based
Description: The anti-inflammatory potential of SAA on neutrophils has been confirmed for SAA at reported serum concentrations. […] However, at higher concentrations of more than 50 μg/ml, SAA was stimulating. In addition, O2-release was inhibited up to 0.1 μg/ml, but the O2-release was increased above that. Thus, SAA plays a dual role, it down-regulates inflammatory processes in lower concentration but, during the full APR, the action of SAA can be promoting.

human neutrophils [1] = assay: Binding of SAA to human neutrophils
Text: (§1) This was the first time that a function of SAA was blocked by a monoclonal AA antibody. The monoclonal antibody mc29 used probably also blocks the laminin-like domain (aa 29-33) and may also be participating partially with the RGD-like domain (aa 39-41). In addition, human neutrophils were exposed to full human APS at different temperatures. […] This indicated an irreversible structural change of SAA (or its fragments) during high fever, which is blocking SAA's return to the reversible binding to HDL. (This febrile temperature-that induced the aggregation of AA-antigenic proteins has also been noticed in vitro and documented in FIG. 2 at 38° C. and 40° C.). The possibly unfavorable consequences of these aggregates in humans or animals are unknown today.

[2] = Immunodiffusion of SAA-HDL containing acute phase serum with polyclonal anti-AA at different temperatures; assay type: physicochemical; conditions: added to normal human serum
Description: Immunodiffusion (ID) at different temperatures. The ID was performed in 1.5% Seakem Agarose in 0.03 M barbital buffer, pH 8.6 with the same reagents in each of the three plates a 6 wells (A-C). Top and bottom well contained AA (0.1 mg/ml), the middle well contained polyclonal rabbit anti-AA antibodies undiluted and the 4 side wells contained elevated SAA-HDL containing APS from 4 patients at 1/10 diluted. Plate A after diffusion over night at room temperature, plate B at 4° C. over night and plate C first at 4° over night as plate B at 4° C. followed by room temperature for 6 hs similar to plate A.
In FIG. 1A, one recognizes a line of identity of AA with all four patients' sera as if the SAA (probably SAA1 and SAA2) reaction were done with pure SAA. At 4° C. in FIG. 1B, however, there is no reaction with SAA-HDL in serum. This is due to the hiding of the AA-reactive parts of SAA through HDL. […] Therefore, the separation of SAA from HDL is temperature-dependent.

human neutrophils [3] = assay: FMLP-induced oxidative burst of normal human neutrophils; assay type: cell-based; conditions: SAA at 0.1 μg/ml and 1.0 μg/ml
Text: as §1

[4] = SAA at reported serum concentrations

For “83-104: SAA peptide aa 83-104 (NEWGRSGKDPNHFRPAGLPEKY; UniProt P0DJI8 101-122, looked up, fragment)”, the “contribution of SAA peptides to the inhibitory effect on neutrophils” value (neutrophils) was “contributed to this inhibitory effect”.

With “aa 1-14: SAA peptide aa 1-14 (RSFFSFLGEAFDGA; UniProt P0DJI8 19-32, looked up, fragment)” the “contribution of SAA peptides to the inhibitory effect on neutrophils” value (neutrophils) was “contributed to this inhibitory effect”.

B1: recombinant SAA2: recombinant serum amyloid A2 protein (SEQ ID NO: 2: human SAA2) (protein, UniProt P0DJI9 19-122, looked up)
Serum amyloid A-2 protein: RSFFSFLGEAFDGARDMWRAYSDMREANYIGSDKYFHARGNYDAAKRGPGGAWAAEVISNARENIQRLTGRGAEDSLADQAANKWGRSGRDPNHFRPAGLPEKY
In the case of B1, the “binding with human neutrophils” value (human neutrophils [1]) is reported as “Strong binding” and the “temperature-dependent immunodiffusion behavior as in FIG. 1” value [2] is reported as “repeat exactly that behavior”.

B2: SAA: serum amyloid A protein, 12.5 kDa acute phase protein isolated from human serum (protein)
chain: RSFFSFLGEAFDGARDMWRAYSDMREANYIGSDKYFHARGNYDAAKRGPGGAWAAEVITDARENIQRFFGHGAEDS
For B2, the “FMLP-induced oxidative burst of normal human neutrophils” value (human neutrophils [3]) was “reduced, concentration-dependently”, the “binding with human neutrophils” value (human neutrophils [1]) was “Strong binding” and the migration of neutrophils (neutrophils; [4]) was “inhibited”. For the same molecule, the neutrophil myeloperoxidase release (neutrophils; [4]) was “inhibited”, the “oxidative burst of neutrophils” value (neutrophils; [4]) was “inhibited” and the O2-release (neutrophils; above 0.1 μg/ml) was “increased”. For the same molecule, the “effect on neutrophils at higher concentrations” value (neutrophils; more than 50 μg/ml) was “stimulating” and the O2-release (neutrophils; up to 0.1 μg/ml) was “inhibited”.

Source: patent US20230087385A1, “Use of SAA, rSAA or inhibitors of SAA in the treatment of dysregulated inflammation” (LIKA ANTISEPSIS GBR, priority 2020, published 2023)
